Data: US20220162323A1 (Regeneron, published 2022)

T1: FGFR2b on SNU-16 and MFM-223 cells (human, UniProt P21802 22-821)
T1 chain: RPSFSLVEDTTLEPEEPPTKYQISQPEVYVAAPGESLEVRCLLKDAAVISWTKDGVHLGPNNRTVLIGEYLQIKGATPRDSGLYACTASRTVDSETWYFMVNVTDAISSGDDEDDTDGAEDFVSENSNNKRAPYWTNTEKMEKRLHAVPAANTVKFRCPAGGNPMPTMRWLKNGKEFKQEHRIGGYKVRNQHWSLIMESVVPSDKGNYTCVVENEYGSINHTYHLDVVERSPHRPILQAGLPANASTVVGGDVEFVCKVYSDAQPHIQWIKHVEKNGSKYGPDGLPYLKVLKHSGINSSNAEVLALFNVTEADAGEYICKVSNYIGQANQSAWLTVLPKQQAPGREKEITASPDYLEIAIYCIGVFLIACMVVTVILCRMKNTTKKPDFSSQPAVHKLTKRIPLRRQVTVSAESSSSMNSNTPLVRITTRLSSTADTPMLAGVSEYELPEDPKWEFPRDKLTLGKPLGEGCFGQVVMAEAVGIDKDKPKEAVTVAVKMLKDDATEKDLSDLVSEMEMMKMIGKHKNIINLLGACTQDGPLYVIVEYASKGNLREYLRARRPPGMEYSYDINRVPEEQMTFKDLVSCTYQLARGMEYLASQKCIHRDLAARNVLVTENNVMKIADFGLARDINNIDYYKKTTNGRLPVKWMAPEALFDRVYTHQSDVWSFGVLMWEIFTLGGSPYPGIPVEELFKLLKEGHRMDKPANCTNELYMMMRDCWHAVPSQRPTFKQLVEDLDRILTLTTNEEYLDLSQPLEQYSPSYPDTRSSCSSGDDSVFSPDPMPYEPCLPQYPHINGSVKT

T2: hFGFR2b.mmh (human)
T2 construct: also called Human FGFR2b with C-terminal myc-myc-hexahistidine tag
T2 chain: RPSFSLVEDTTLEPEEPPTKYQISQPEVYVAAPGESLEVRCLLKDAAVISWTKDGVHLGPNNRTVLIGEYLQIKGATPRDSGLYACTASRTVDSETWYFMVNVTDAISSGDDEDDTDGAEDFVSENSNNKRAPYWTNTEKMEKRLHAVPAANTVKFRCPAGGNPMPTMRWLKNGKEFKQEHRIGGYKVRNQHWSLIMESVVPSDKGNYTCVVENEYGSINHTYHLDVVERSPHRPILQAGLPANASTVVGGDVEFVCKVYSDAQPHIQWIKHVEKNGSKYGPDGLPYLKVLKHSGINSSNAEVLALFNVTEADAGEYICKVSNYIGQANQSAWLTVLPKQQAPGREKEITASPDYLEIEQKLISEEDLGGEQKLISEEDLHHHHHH

B1: mAb1-tubulysin 1ALP (antibody, human IgG4 S228P, kappa, V domains shown)
VH: QVQLVESGGGVVQPGRSLRLSCAASGFTFSSYGMHWVRQAPGKGLEWVAVIWYDGSNKYYADSVKGRFTISRDNSKNTLYLQMNSLRAEDTAVYYCAREESSASGVDYWGQGTLVTVSS
VL: EIVLTQSPGTLSLSPGERATLSCRASQSVSTRYLAWYQQKRGQAPRLLIYGASSRATGIPDRFSGSGSGTDFTLTISRLEPEDFAVYYCQEYGSSSITFGQGTRLEIKR
modifications: deglycosylated; Q295 carries azido-PEG3-amine clicked to Tubulysin 1A-LP; DAR 2.1 per antibody
notes: also called Anti FGFR2 mAb1-PEG3-N3-Tubulysin 1A-LP
B2: mAb1-maytansinoid 1ALP (antibody, V domains shown)
VH: B1 VH
VL: B1 VL
modifications: maytansinoid 1ALP (mc-VC-PAB-NMe-C3-May) linker-payload conjugated; residues not stated in Example 5; DAR 2.5 per antibody
notes: it is written on the heavy chain only for want of a better place
B3: mAb1 (antibody, human IgG4 S228P, kappa, V domains shown)
VH: B1 VH
VL: B1 VL
notes: also called anti-FGFR2 antibody mAb1; mAb1 (Unconjugated)
B4: mAb2-tubulysin 1ALP (antibody, V domains shown)
VH: QVQLVESGGGVVQPGKSLRLSCAASGFTFSNYGMHWVRQTPVKGLEWVTLIWYDGSNKYYTDSVKGRFTISRDNSKNTLYLQMNSLRSEDTAVYYCAREGNWNYGHAFDIWGQGTMVTVSS
VL: DIQMTQSPSTLSASVGDRVTITCRASQNIGNWLAWYQQKPGKAPNLLIYKASTLESGVPSRFSGSGSGTEFTLTISSLQPDDFATYNCQQYNSYSPTFGQGTKLEIKR
modifications: deglycosylated; Q295 carries azido-PEG3-amine clicked to Tubulysin 1A-LP; DAR 2.1 per antibody
notes: also called Anti FGFR2 mAb2-PEG3-N3-Tubulysin 1A-LP
B5: mAb2 (antibody, V domains shown)
VH: B4 VH
VL: B4 VL
notes: also called anti-FGFR2 antibody mAb2; mAb2 (Unconjugated)
B6: mAb2-maytansinoid 1ALP (antibody, V domains shown)
VH: B4 VH
VL: B4 VL
modifications: maytansinoid 1ALP (mc-VC-PAB-NMe-C3-May) linker-payload conjugated; residues not stated in Example 5; DAR 1.9 per antibody
notes: it is written on the heavy chain only for want of a better place; also called FGFR2 maytansinoid ADC
B7: Comp1 (antibody, INN chains, looked up, V domains shown)
VH: QVQLVQSGAEVKKPGSSVKVSCKASGYIFTTYNVHWVRQAPGQGLEWIGSIYPDNGDTSYNQNFKGRATITADKSTSTAYMELSSLRSEDTAVYYCARGDFAYWGQGTLVTVSS
VL: DIQMTQSPSSLSASVGDRVTITCKASQGVSNDVAWYQQKPGKAPKLLIYSASYRYTGVPSRFSGSGSGTDFTFTISSLQPEDIATYYCQQHSTTPYTFGQGTKLEIK

What was measured:
[1] = target: T1, FGFR2b on SNU-16 and MFM-223 cells; experiment: cell-based or functional assay
[2] = target: T1, FGFR2b on SNU-16 and MFM-223 cells; experiment: cell-based or functional assay
[3] = target: T2, hFGFR2b.mmh; experiment: SPR (Biacore), ADC captured by anti-human Fc, hFGFR2b-MMH as analyte, 25 C
Experimental: (§1) The equilibrium dissociation constants (KD values) for hFGFR2b.mmh binding to anti-FGFR2 antibodies conjugated with Tubulysin (“tubulysin 1ALP”), Auristatin (“auristatin LP1”), or mc-VC-PAB-NMe-C3-May (“maytansinoid 1ALP”) were determined using a real-time surface plasmon resonance biosensor assay on a Biacore 2000 or a Biacore 4000 instrument. The Biacore sensor surface was derivatized by amine coupling with a monoclonal mouse anti-human Fc antibody (REGN2567 or Jackson Cat. No #109-005-098) to capture anti-FGFR2 ADC and parent unmodified antibodies expressed with human constant regions. Biacore binding studies were performed in HBS-EP running buffer (0.01M HEPES pH 7.4, 0.15M NaCl, 3 mM EDTA, 0.05% v/v Surfactant P20). Human FGFR2b and Human FGFR2c were prepared in-house expressing a C-terminal myc-myc-hexahistidine tag (hFGFR2b-MMH—SEQ ID NO: 57; hFGFR2c-MMH—SEQ ID NO: 58). […] Association of hFGFR2b-MMH or hFGFR2c-MMH to each of the captured ADCs and monoclonal antibodies was monitored for 4 minutes. Subsequently, dissociation was monitored for 10 minutes in HBS-EP running buffer. Anti-human Fc surface was regenerated by a brief injection of 20 mM H₃PO₄. All binding kinetic experiments were performed at 25° C. Kinetic association (kₐ) and dissociation (kd) rate constants were determined by fitting the real-time sensorgrams to a 1:1 binding model using Scrubber 2.0c curve fitting software. All sensorgrams were double referenced by subtracting buffer injection sensorgram signal from the corresponding analyte sensorgram, thereby removing artifacts caused by dissociation of the antibody from the capture surface. Binding dissociation equilibrium constants (KD) and dissociative half-lives (t½) were calculated from the kinetic rate constants as: […]

[4] = target: T3, hFGFR2c.mmh (human, UniProt P21802 22-377); experiment: SPR (Biacore), antibody captured by anti-human Fc, hFGFR2c-MMH as analyte, 25 C
T3 construct: also called Human FGFR2c with C-terminal myc-myc-hexahistidine tag
Experimental: The equilibrium dissociation constants (KD values) for hFGFR2b.mmh binding to anti-FGFR2 antibodies conjugated with Tubulysin (“tubulysin 1ALP”), Auristatin (“auristatin LP1”), or mc-VC-PAB-NMe-C3-May (“maytansinoid 1ALP”) were determined using a real-time surface plasmon resonance biosensor assay on a Biacore 2000 or a Biacore 4000 instrument. The Biacore sensor surface was derivatized by amine coupling with a monoclonal mouse anti-human Fc antibody (REGN2567 or Jackson Cat. No #109-005-098) to capture anti-FGFR2 ADC and parent unmodified antibodies expressed with human constant regions. Biacore binding studies were performed in HBS-EP running buffer (0.01M HEPES pH 7.4, 0.15M NaCl, 3 mM EDTA, 0.05% v/v Surfactant P20). […] Association of hFGFR2b-MMH or hFGFR2c-MMH to each of the captured ADCs and monoclonal antibodies was monitored for 4 minutes. Subsequently, dissociation was monitored for 10 minutes in HBS-EP running buffer. […] Kinetic association (kₐ) and dissociation (kd) rate constants were determined by fitting the real-time sensorgrams to a 1:1 binding model using Scrubber 2.0c curve fitting software. […] Binding dissociation equilibrium constants (KD) and dissociative half-lives (t½) were calculated from the kinetic rate constants as: […]

[5] = target: T2, hFGFR2b.mmh; experiment: SPR (Biacore), antibody captured by anti-human Fc, hFGFR2b-MMH as analyte, 25 C
Experimental: as §1

| Binder | IC50 (M), CellTiter-Glo cytotoxicity, MFM-223 cells, 6 days [1] | IC50 (M), CellTiter-Glo cytotoxicity, SNU-16 cells, 6 days [1] | Max % Kill, MFM-223 cells [1] | Max % Kill, SNU-16 cells [1] | IC50 (M), cytotoxicity, SNU-16 monoculture, 5 days (bystander assay) [2] | Max % Kill, SNU-16 monoculture (bystander assay) [2] | Antigen Bound (RU) [3] | t1/2 [3] | Kd [3] | binding result [4] | Kd [5] | koff [5] | kon [5] | t1/2 [5] | Antigen Bound (RU) [4] | Antigen Bound (RU) [5] |
| --- | --- | --- | --- | --- | --- | --- | --- | --- | --- | --- | --- | --- | --- | --- | --- | --- |
| B1 | 1.25e-10 M | 4.34e-11 M | 91.1% | 95.4% | 6.69e-11 M | 97.1% | 36.4 RU | 7.4 min |  |  |  |  |  |  |  |  |
| B2 | 2.14e-10 M | 2.68e-10 M | 85.5% | 93.1% |  |  | 42.1 RU | 11.1 min | 41800 pM |  |  |  |  |  |  |  |
| B3 |  |  |  |  |  |  |  |  |  | no binding (tested: 30 nM (highest concentration injected)) | 25000 pM | 0.00104 s⁻¹ | 41700 M⁻¹ s⁻¹ | 11.1 min |  |  |
| B4 | 6.36e-11 M | 3.7e-11 M | 90% | 95.3% | 2.73e-11 M | 97.2% | 32.7 RU | 9.8 min |  |  |  |  |  |  |  |  |
| B5 |  |  |  |  |  |  |  |  |  |  | 8920 pM | 0.000447 s⁻¹ | 50100 M⁻¹ s⁻¹ | 25.8 min |  |  |
| B6 | 1.72e-10 M | 2.06e-10 M | 91.1% | 95% | 6.45e-10 M | 94.8% | 31.3 RU | 13.1 min | 12800 pM |  |  |  |  |  |  |  |
| B7 |  |  |  |  |  |  |  |  |  |  | 60800 pM | 0.00471 s⁻¹ | 77400 M⁻¹ s⁻¹ | 2.5 min | 0.6 RU | 68.3 RU |
